The values that follow come from publication PMC4601640, “Stability of the Human Hsp90-p50^Cdc37 Chaperone Complex against Nucleotides and Hsp90 Inhibitors, and the Influence of Phosphorylation by Casein Kinase 2” (Molecules, 2015).

To fix the notation:
T1: GST-p50^Cdc37 (human, UniProt Q16543 1-378)
T1 construct: p50 Cdc37, human, full length, residues 1-378, in pGEX6P-1; also called GST-tagged p50^Cdc37; source: E. coli BL21 (DE3), purified (glutathione sepharose, size exclusion); not shown: GST, N-terminal, kept
T1 sequence (looked up): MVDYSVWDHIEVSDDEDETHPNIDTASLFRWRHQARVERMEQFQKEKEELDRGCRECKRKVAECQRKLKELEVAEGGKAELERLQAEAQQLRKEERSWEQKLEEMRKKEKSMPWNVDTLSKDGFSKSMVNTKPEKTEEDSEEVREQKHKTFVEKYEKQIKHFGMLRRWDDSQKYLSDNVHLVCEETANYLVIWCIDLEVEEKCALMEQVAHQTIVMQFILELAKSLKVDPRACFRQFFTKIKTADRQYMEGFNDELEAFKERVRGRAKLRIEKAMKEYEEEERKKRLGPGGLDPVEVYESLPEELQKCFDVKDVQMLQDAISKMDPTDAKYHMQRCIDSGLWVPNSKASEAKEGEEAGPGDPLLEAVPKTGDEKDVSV

B1: human N-terminal Hsp90β (1-219) (domain or fragment)
chain: not shown
notes: Hsp90β, human, N-terminal domain, residues 1-219; Gene synthesised by GeneArt; pET28a; also called N-Hsp90; Hsp90β-N
B2: human Hsp90β (1-724 Δ220-275) (natural protein)
chain: not shown
notes: Hsp90β, human, residues before the deleted charged linker 220-275 of the construct 1-724; four glycine residues that replace the deleted section 220-275; Hsp90β, human, residues after the deleted charged linker 220-275 of the construct 1-724; Gene synthesised by GeneArt, codon optimised for E. coli; pET28a; also called ΔHsp90; ΔHsp90β
B3: human full-length p50^Cdc37 (residues 1-378) (natural protein, UniProt Q16543 1-378, looked up)
chain: T1 sequence (looked up)
notes: p50 Cdc37, human, full length, residues 1-378; Eluted as a dimer in size-exclusion chromatography; source: tag cleaved with PreScission protease
B4: CK2-phosphorylated human full-length p50^Cdc37 (natural protein, UniProt Q16543 1-378, looked up)
chain: T1 sequence (looked up)
modifications: phosphoserine at 13 (shown by Western blot)
notes: p50 Cdc37, human, full length, residues 1-378, phosphorylated by CK2α; also called (p)p50^Cdc37; source: E. coli Tuner (DE3), purified, then phosphorylated in vitro with purified CK2α and ATP
B5: human Hsp90α (1-732 Δ226-283) (natural protein)
chain: not shown
notes: Hsp90α, human, residues before the deleted section 226-283 of the construct 1-732; four glycine residues that replace the deleted section 226-283; Hsp90α, human, residues after the deleted section 226-283 of the construct 1-732; Gene synthesised by GeneArt; pET28a; also called ΔHsp90α

Details in all cases: both partners purified
The target of assay [1] is B3. Put plainly: ITC; p50^Cdc37 (200 µM) titrated into Hsp90 (20 µM); 50 mM HEPES pH 7.5, 10 mM MgCl2, 30 °C.
Assay [2] concerns the target T2, human full-length Hsp90β (human, UniProt P08238 1-724).
T2 construct: Hsp90β, human, full length, subcloned from T47D cell line cDNA into pET28a; Eluted as a dimer in size-exclusion chromatography; No step that removes the His6 tag is described; the tag is detected in the ELISA; also called hHsp90β-FL; His6-Hsp90
Described as above.

For assay [3], the target named is T3, CK2-phosphorylated human full-length Hsp90β (human, UniProt P08238 1-724, phosphoserine at 255 (shown by Western blot); Ser226 named as a CK2 site, its phosphorylation could not be verified).
T3 construct: Hsp90β, human, full length, phosphorylated by CK2α; only pSer255 was checked; also called (p)Hsp90; h(p)Hsp90β-FL; source: E. coli BL21 Star (DE3), purified, then phosphorylated in vitro with purified CK2α and ATP
T3 sequence (P08238 whole entry): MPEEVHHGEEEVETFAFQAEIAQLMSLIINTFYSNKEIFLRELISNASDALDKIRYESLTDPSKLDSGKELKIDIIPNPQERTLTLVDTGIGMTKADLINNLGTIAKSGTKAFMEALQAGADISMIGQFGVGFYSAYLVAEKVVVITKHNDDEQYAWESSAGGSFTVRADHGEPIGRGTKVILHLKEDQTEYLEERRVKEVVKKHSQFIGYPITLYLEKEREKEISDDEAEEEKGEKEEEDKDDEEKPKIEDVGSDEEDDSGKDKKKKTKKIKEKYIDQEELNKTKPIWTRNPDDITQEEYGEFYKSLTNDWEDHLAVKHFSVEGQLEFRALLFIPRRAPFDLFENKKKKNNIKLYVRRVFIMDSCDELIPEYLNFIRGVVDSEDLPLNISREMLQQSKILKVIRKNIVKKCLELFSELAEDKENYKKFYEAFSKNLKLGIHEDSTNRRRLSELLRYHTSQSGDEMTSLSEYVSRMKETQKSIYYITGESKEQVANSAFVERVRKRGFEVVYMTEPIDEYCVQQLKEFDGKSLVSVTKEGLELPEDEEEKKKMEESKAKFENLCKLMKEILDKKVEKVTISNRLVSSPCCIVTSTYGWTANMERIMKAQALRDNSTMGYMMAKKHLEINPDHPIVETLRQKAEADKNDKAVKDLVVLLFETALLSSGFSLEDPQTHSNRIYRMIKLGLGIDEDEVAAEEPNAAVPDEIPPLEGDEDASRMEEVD
Described as above.

In assay [4] the target is T2, human full-length Hsp90β. Put plainly: SEC; analytical Superdex200 10/300 GL, room temperature, 0.3 mL/min; 85 µM protein in 50 mM HEPES pH 7.5, 50 mM KCl, 5 mM MgCl2, 1 mM DTT; fractions on SDS-PAGE.
Another assay addresses T1, GST-p50^Cdc37. The assay is described as follows: ELISA; GST-p50^Cdc37 (4 µM) immobilised on glutathione-coated plates; His6-Hsp90 (4 µM) pre-incubated with nucleotides and/or inhibitors in 5% DMSO, detected with anti-His6; 50 mM HEPES pH 7.5, 150 mM NaCl, 10 mM MgCl2, 0.05% Tween-20, 0.1% BSA; room temperature.

As for B1, the Kd in assay [1] was found to be 4400 nM.

As to B2, the Kd in assay [1] worked out at 1100 nM. With B3, the Kd was found to be 1.2 µM with human full-length Hsp90β [2] and 1.7 µM in assay [3]. The “stoichiometry N” value with human full-length Hsp90β [4] was 1.

As for B4, the results for the Kd (with human full-length Hsp90β [2]; in assay [3]) were 5.1 µM and 8.6 µM, respectively. Turning to B5, the binding result with GST-p50^Cdc37 is listed as “binds”.
